{"source": "paper PMC10579966", "about": "“The NADH recycling enzymes TsaC and TsaD regenerate reducing equivalents for Rieske oxygenase chemistry” (The Journal of Biological Chemistry, 2023)", "key": {"[1]": {"target": "T1, TsaM (Comamonas testosteroni, UniProt P94679)", "T1 construct": "gene tsaM1; pET-28a(+)-TEV-tsaM, E. coli C41(DE3), purified as TsaC; trimer", "T1 sequence (P94679 1-347)": "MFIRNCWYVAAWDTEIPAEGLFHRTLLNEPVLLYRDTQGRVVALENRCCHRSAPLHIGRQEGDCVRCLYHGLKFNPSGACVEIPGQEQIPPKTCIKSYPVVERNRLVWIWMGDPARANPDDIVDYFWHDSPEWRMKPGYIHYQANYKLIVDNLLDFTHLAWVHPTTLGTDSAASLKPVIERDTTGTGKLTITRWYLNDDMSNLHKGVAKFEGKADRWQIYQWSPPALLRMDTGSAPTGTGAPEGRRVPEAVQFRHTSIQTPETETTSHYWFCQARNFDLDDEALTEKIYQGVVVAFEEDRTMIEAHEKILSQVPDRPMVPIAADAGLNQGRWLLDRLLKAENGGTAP", "assay": "LC-MS product formation and NADH consumption (A340)", "format": "biochemical", "conditions": "with reductase VanB, Fe(II), 30 °C"}, "[2]": {"target": "T2, TsaC (Comamonas testosteroni, UniProt P94681, T143Q/G149N)", "T2 construct": "gene tsaC1; N-terminal His6 tag with TEV site (residues -20 to -1, kept), codon-optimized, pET-28a(+)-TEV, E. coli C41(DE3); native residues 1-252; homotetramer", "T2 sequence (P94681 whole entry T143Q/G149N, the tested form may be a part)": "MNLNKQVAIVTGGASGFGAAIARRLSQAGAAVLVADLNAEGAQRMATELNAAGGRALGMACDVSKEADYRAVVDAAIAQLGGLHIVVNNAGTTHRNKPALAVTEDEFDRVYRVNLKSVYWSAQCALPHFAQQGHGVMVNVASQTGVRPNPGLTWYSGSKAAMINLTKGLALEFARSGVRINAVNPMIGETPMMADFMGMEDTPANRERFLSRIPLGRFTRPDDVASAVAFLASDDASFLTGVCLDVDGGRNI", "assay": "GC-MS turnover", "format": "biochemical", "conditions": "5 mM NAD+, 10 μM enzyme, 30 °C, 2 h"}, "[3]": {"target": "T3, TsaC (Comamonas testosteroni, UniProt P94681, G149N)", "T3 construct": "gene tsaC1; N-terminal His6 tag with TEV site (residues -20 to -1, kept), codon-optimized, pET-28a(+)-TEV, E. coli C41(DE3); native residues 1-252; homotetramer", "T3 sequence (P94681 whole entry G149N, the tested form may be a part)": "as the sequence (P94681 whole entry T143Q/G149N, the tested form may be a part) above, with Q143T counted along it", "assay": "GC-MS turnover", "format": "biochemical", "conditions": "5 mM NAD+, 10 μM enzyme, 30 °C, 2 h"}, "[4]": {"target": "T4, TsaC (Comamonas testosteroni, UniProt P94681)", "T4 construct": "gene tsaC1; N-terminal His6 tag with TEV site (residues -20 to -1, kept), codon-optimized, pET-28a(+)-TEV, E. coli C41(DE3); native residues 1-252; homotetramer", "assay": "differential scanning fluorimetry", "format": "binding", "conditions": "10 μM enzyme; NADH alone"}, "[5]": {"target": "the molecule itself", "assay": "crystal structure; hanging-drop vapor diffusion, 10 to 20 mg/ml protein with 2 mM NAD+, 0.2 M KCl, 20% PEG 3350, 10% glycerol, 293 K; two chains in the asymmetric unit, tetramer with two symmetry-related molecules; 2.18 A"}, "[6]": {"substrate": "O=S(=O)(O)c1ccc(CO)cc1", "assay": "LC-MS steady-state kinetics", "format": "biochemical, Comamonas testosteroni", "conditions": "2 mM NAD+, 30 °C", "text": "(§1) LC-MS steady-state kinetics on TsaC"}, "[7]": {"substrate": "O=Cc1ccc(C(=O)O)cc1", "assay": "LC-MS steady-state kinetics", "format": "biochemical, Comamonas testosteroni", "conditions": "2 mM NAD+, 30 °C, aldehyde hydrate proposed as the oxidized species", "text": "as §1"}, "[8]": {"substrate": "O=Cc1ccc(S(=O)(=O)O)cc1", "assay": "LC-MS steady-state kinetics", "format": "biochemical, Comamonas testosteroni", "conditions": "2 mM NAD+, 30 °C, aldehyde hydrate proposed as the oxidized species", "text": "as §1"}, "[9]": {"substrate": "O=C(O)c1ccc(CO)cc1", "assay": "LC-MS steady-state kinetics", "format": "biochemical, Comamonas testosteroni", "conditions": "2 mM NAD+, 30 °C", "text": "as §1"}, "[10]": {"target": "the molecule itself", "assay": "SEC-MALS; 15 ul of 90 uM protein, AdvanceBio 300A column, 50 mM Hepes pH 8.2, 200 mM NaCl, 5% glycerol, with either NAD+ or NADH, room temperature; about 0.3 uM at the apex of the largest peak"}, "[11]": {"target": "the molecule itself", "assay": "SEC; gel filtration in the purification of TsaM, purified as described for TsaC; lysis buffer 50 mM Tris-HCl pH 7.2, 250 mM NaCl"}, "[12]": {"substrate": "O=Cc1ccc(C(=O)O)cc1", "assay": "LC-MS steady-state kinetics", "format": "biochemical, Comamonas testosteroni", "conditions": "2 mM NAD+, 30 °C", "text": "(§2) LC-MS steady-state kinetics on TsaD"}, "[13]": {"substrate": "O=Cc1ccc(S(=O)(=O)O)cc1", "assay": "LC-MS steady-state kinetics", "format": "biochemical, Comamonas testosteroni", "conditions": "2 mM NAD+, 30 °C", "text": "as §2"}, "[14]": {"target": "the molecule itself", "assay": "SEC; HiPrep 16/60 Sephacryl S200-HR, 50 mM Hepes pH 8.0, 200 mM NaCl, 5% glycerol"}}, "data": [{"molecule": "Cc1ccc(S(=O)(=O)O)cc1", "note": "[4-methylbenzenesulfonate]", "values": [{"measurement": "LC-MS product formation and NADH consumption (A340)", "setting": "[1]", "result": "more NADH is consumed in assays that contain 4-methylbenzenesulfonate rather than 4-methylbenzoate"}]}, {"molecule": "C[C@H](O)[C@@H](C)O", "note": "[meso-2,3-butanediol]", "values": [{"measurement": "GC-MS turnover", "setting": "[2]", "result": "T143Q/G149N variants of TsaC show a significantly improved ability to transform meso-2,3-butanediol into 3-hydroxy-2-butanone"}, {"measurement": "GC-MS turnover", "setting": "[3]", "result": "both the G149N and T143Q/G149N variants of TsaC show a significantly improved ability"}]}, {"molecule": "NC(=O)C1=CN([C@@H]2O[C@H](COP(=O)(O)OP(=O)(O)OC[C@H]3O[C@@H](n4cnc5c(N)ncnc54)[C@H](O)[C@@H]3O)[C@@H](O)[C@H]2O)C=CC1", "note": "[NADH]", "values": [{"measurement": "ΔTm", "setting": "[4]", "result": 12.4, "unit": "°C"}]}, {"molecule": "Cc1ccc(C(=O)O)cc1", "note": "[4-methylbenzoate]", "values": [{"measurement": "LC-MS product formation and NADH consumption (A340)", "setting": "[1]", "result": "TsaM and VanB consume more 4-methylbenzenesulfonate than 4-methylbenzoate"}]}, {"molecule": "TsaC (wild type), short-chain dehydrogenase/reductase of the TsaMBCD pathway (enzyme, Comamonas testosteroni, UniProt P94681 1-252, looked up, TsaC, Comamonas testosteroni, codon-optimized synthetic gene in pET-28a(+)-TEV; native residues 1 (initial methionine) to 252 (the four C-terminal residues are 249 to 252); the His6 tag and TEV protease cleavage site are numbered -20 to -1; The tag and TEV site (residues -20 to -1) are present in the crystallised protein but disordered; no cleavage of the tag is described; also called wild-type …) MNLNKQVAIVTGGASGFGAAIARRLSQAGAAVLVADLNAEGAQRMATELNAAGGRALGMACDVSKEADYRAVVDAAIAQLGGLHIVVNNAGTTHRNKPALAVTEDEFDRVYRVNLKSVYWSAQCALPHFAQQGHGVMVNVASTTGVRPGPGLTWYSGSKAAMINLTKGLALEFARSGVRINAVNPMIGETPMMADFMGMEDTPANRERFLSRIPLGRFTRPDDVASAVAFLASDDASFLTGVCLDVDGGRNI", "values": [{"measurement": "stoichiometry N", "setting": "[5]", "result": 4}, {"measurement": "Km", "setting": "[6]", "result": "13 ± 2.0", "unit": "µM"}, {"measurement": "Vmax", "setting": "[6]", "result": 12, "unit": "µM/min"}, {"measurement": "kcat", "setting": "[6]", "result": "0.1 ± 0.004", "unit": "s⁻¹"}, {"measurement": "kcat/Km", "setting": "[6]", "result": "7900 ± 1300", "unit": "M⁻¹ s⁻¹"}, {"measurement": "Km", "setting": "[7]", "result": "23 ± 4.7", "unit": "µM"}, {"measurement": "Vmax", "setting": "[7]", "result": 13, "unit": "µM/min"}, {"measurement": "kcat", "setting": "[7]", "result": "0.112 ± 0.00667", "unit": "s⁻¹"}, {"measurement": "kcat/Km", "setting": "[7]", "result": "4800 ± 1000", "unit": "M⁻¹ s⁻¹"}, {"measurement": "Km", "setting": "[8]", "result": "20 ± 3.5", "unit": "µM"}, {"measurement": "Vmax", "setting": "[8]", "result": 15, "unit": "µM/min"}, {"measurement": "kcat", "setting": "[8]", "result": "0.125 ± 0.00583", "unit": "s⁻¹"}, {"measurement": "kcat/Km", "setting": "[8]", "result": "6200 ± 1100", "unit": "M⁻¹ s⁻¹"}, {"measurement": "Km", "setting": "[9]", "result": "18 ± 2.8", "unit": "µM"}, {"measurement": "Vmax", "setting": "[9]", "result": 12, "unit": "µM/min"}, {"measurement": "kcat", "setting": "[9]", "result": "0.0983 ± 0.00367", "unit": "s⁻¹"}, {"measurement": "kcat/Km", "setting": "[9]", "result": "5400 ± 870", "unit": "M⁻¹ s⁻¹"}]}, {"molecule": "Y155F TsaC variant (enzyme, Comamonas testosteroni, UniProt P94681 1-252, looked up, TsaC, Comamonas testosteroni, made by site-directed mutagenesis of pET-28a(+)-TEV-tsaC; same limits as the wild type (native residues 1 to 252); Expressed and purified as the wild type; source: E. coli C41(DE3), purified (HisTrap HP, Sephacryl S200-HR gel filtration)) MNLNKQVAIVTGGASGFGAAIARRLSQAGAAVLVADLNAEGAQRMATELNAAGGRALGMACDVSKEADYRAVVDAAIAQLGGLHIVVNNAGTTHRNKPALAVTEDEFDRVYRVNLKSVYWSAQCALPHFAQQGHGVMVNVASTTGVRPGPGLTWFSGSKAAMINLTKGLALEFARSGVRINAVNPMIGETPMMADFMGMEDTPANRERFLSRIPLGRFTRPDDVASAVAFLASDDASFLTGVCLDVDGGRNI", "values": [{"measurement": "stoichiometry N", "setting": "[10]", "result": 4}]}, {"molecule": "TsaM (wild type), Rieske oxygenase of the TsaMBCD pathway (enzyme, Comamonas testosteroni, UniProt P94679 1-347, looked up, TsaM, Comamonas testosteroni, in pET-28a(+)-TEV-tsaM; also called wild-type TsaM; source: E. coli C41(DE3), purified as described for TsaC (gel filtration)) MFIRNCWYVAAWDTEIPAEGLFHRTLLNEPVLLYRDTQGRVVALENRCCHRSAPLHIGRQEGDCVRCLYHGLKFNPSGACVEIPGQEQIPPKTCIKSYPVVERNRLVWIWMGDPARANPDDIVDYFWHDSPEWRMKPGYIHYQANYKLIVDNLLDFTHLAWVHPTTLGTDSAASLKPVIERDTTGTGKLTITRWYLNDDMSNLHKGVAKFEGKADRWQIYQWSPPALLRMDTGSAPTGTGAPEGRRVPEAVQFRHTSIQTPETETTSHYWFCQARNFDLDDEALTEKIYQGVVVAFEEDRTMIEAHEKILSQVPDRPMVPIAADAGLNQGRWLLDRLLKAENGGTAP", "values": [{"measurement": "stoichiometry N", "setting": "[11]", "result": 3}]}, {"molecule": "TsaD (wild type), aldehyde dehydrogenase of the TsaMBCD pathway (enzyme, Comamonas testosteroni, UniProt P94682 1-476, looked up, TsaD, Comamonas testosteroni, codon-optimized synthetic gene in pMCSG9; Expression followed the TsaC protocol with ampicillin; also called untagged TsaD; source: E. coli, purified (MBPTrap, TEV cleavage, HisTrap HP flow-through, Sephacryl S200-HR gel filtration); not shown: MBP, N-terminal, cleaved; His6, N-terminal, cleaved) MSTVLYRCPELLIGGEWRPGRHEQRLVVRNPATGEPLDELRLASADDLQLALQTTQQAFEHWRQVPAHERCARLERGVARLRENTERIAHLLTLEQGKTLAEARMECAMAADLIKWYAEEARRVYGRVIPARLPNSRMEVFKFPVGPVAAFSPWNFPLVLSARKLGGAIAAGCSIVLKAAEETPASVAAMVDCLNQELPPGVVQLLYGVPAEVSQALIASPVVRKVTFTGSVPVGRHLAELSARHLKRITLELGGHAPVIVCGDADIARTVNLMVQHKFRNAGQACLAPTRFFVDRRIYGDFVDAFGATQALRVGAGMAAETQMGPVASARRQAAVQDLIARSVAAGARPVASAVPEAGYFVAPTLLADVPLDAPVMSEEPFGPVACAVPFDSLDQAIAQANHNPYGLAGYLFTDSAKAILAVSERLEVGSLAVNGMGVSVPEAPFGGVKDSGYGSESGTEGMEAFLDTKFMHYVA", "values": [{"measurement": "Km", "setting": "[12]", "result": "21 ± 6.9", "unit": "µM"}, {"measurement": "Vmax", "setting": "[12]", "result": 13, "unit": "µM/min"}, {"measurement": "kcat", "setting": "[12]", "result": "0.105 ± 0.00983", "unit": "s⁻¹"}, {"measurement": "kcat/Km", "setting": "[12]", "result": "5000 ± 1700", "unit": "M⁻¹ s⁻¹"}, {"measurement": "Km", "setting": "[13]", "result": "16 ± 2.5", "unit": "µM"}, {"measurement": "Vmax", "setting": "[13]", "result": 13, "unit": "µM/min"}, {"measurement": "kcat", "setting": "[13]", "result": "0.112 ± 0.00517", "unit": "s⁻¹"}, {"measurement": "kcat/Km", "setting": "[13]", "result": "6900 ± 1100", "unit": "M⁻¹ s⁻¹"}, {"measurement": "stoichiometry N", "setting": "[14]", "result": 2}]}]}
